Experiment: yeast display, Sf9 membrane polyspecificity reagent, FACS + sequencing; frameworks hold sequencing errors
Method in brief: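 A synthetic nanobody library was expressed on Saccharomyces cerevisiae BJ5465 by galactose induction for 36–48 hours. The library was stained for 1 hour at 4 °C with 10% biotinylated, detergent-solubilized Sf9 membrane reagent and enriched with streptavidin microbeads before FACS. Low and high (top ~1%) gates were set on anti-HA fluorescence for expression and streptavidin fluorescence for reagent binding, and each polyreactivity label reflects the gate of origin.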

Sequence	polyreactivity (PSR sort gate)
QVQLVESGGGLVQAGGSLRLSCAASGYIFSAYAMGWSRQAPGKERELVAVITSGGGTYYADSVKGRFTISRDNAKNTVYLLMNSLKTEDTAVYYCAAGPLCPYASRYGYWGQGTQVTVSS	high polyreactivity
QVQLVESGGGLVQAGGSLRLSCAASGSTFESNTMGWYRQAPGKERELVAASSYSGGRTYYADSVKGRFTISRVNAKNTVYFQMNILKPEDTAVYSCAARWSVSYRMYYWGQGTQVTVSS	high polyreactivity
QVQLVEAGGRLVQAAGSLRLSLAASAFNTTAMGWYRQAPGKDRELVAAITSDGDSTYYADSVKGRFTISRDNAQNTDYFQKNCVKPVDTAVYYCAADAVPTSVVYWGFYGMYWGQGTQVTVSS	low polyreactivity
QVQLVESGGGLVQAGGSLRLSCAASGSIFYYNTMGWYRQAPGKERELVAGISWGGGRTYYADSVKGRFTISRDNAKNTVYLQMNSLKPEDTAVYYCNARHRRLPSNGGYDYWGQGTQVTVSS	high polyreactivity
QVQLVESGGGLVQARGSLRLSCAASGRIFSYNDMGWYRQAPGTERELVAVISIRGGGTYYADSVKGRFTISRDNAKNTVYFQMNSLKPEDTAVYYCNAEYVTFGEEYGYWGQGTQVTVSS	low polyreactivity
QVQLVESGGGLVQAGGSLRLSCAASGSIFFVYGMGWYRQAPGKERELVAAISGGITNYADSVKGRFTISRDNAKNTVNLQMNSLKPEDTAVYYCAAYTPSYGGRDYWGQATQVTVSS	low polyreactivity
QVQLVESGGGLVQAGGSLRLSCAASGSIFRAYAMGWYRQAPGKERELVAAINWTDGSTYYADSVKGRFTISRDKAKNTVYLQMNSLKPEDTAVYYCAKDSIARHNYWGQGTQVTVSS	low polyreactivity
QVQLVESGGGLVQAGGSLRLSCAASGLTFMYYAMGWYRQAPGKERELVAAISKGGGSTYYADSVKGRFTISRDNAKNTVYLQMNSLKPEDTAVYYCNADKVTRVTYWDDSWGLGTQVTVSS	high polyreactivity
QVQLVESGGGLVQAGGSLRLSCAASGFTFGVYAMGWYRQAPGKERELDAAISTTVGSTYYADSVKGRFTISRDNAKNTVYLQMNSLKPEDTAVYYCAAEYTGYINYYIYEYWGQGTQVTVSS	low polyreactivity
QVQLVESGGGLGQAGGSLRLSCAASGFIFTFYAMGWNRQAPGKERELVAAISWSGGSTYYADSVKGRFTISHDNAKNTVYLQMNSLKPEDTAVYSCNAQHARGYYYWGQGTQVTVSS	low polyreactivity
QVQLVESGGGLVQAGGSLRLSCAASGIIFSVNAMGWYRQAPGKERELVAAISGSGGRTYYADSVKGRFTISRDNAKNTVYLQMNSLKPEDTAVYYCAARRTGKSYYGSRSGFDYWGQGTQVTVSS	high polyreactivity
QVQLVESGGGLVQAGGSLRLSCAASGFTFNVYAMGWYRQAPGKERELVARITRRGGSTYYADSVKGRFTISRDNAKNTVYLQMNSLKPEDTAVYYCNADSPVVSGRGGRRSAYLNDYWGQGTKVTVSS	high polyreactivity
QVQLVESGGGLVQAGGSLRISCAASGSTFRWYAMGWYRQAPGKEREFVAAITWSGGRTYYADSVKGRFTISRDNAKNTVYLQMNSLKPEDTAVYYGNADDYGDSFNYWGQGTQVTVSS	high polyreactivity
QVQLVDSGGGLVQAGVSLRLSCAASGSIFRGNAMGWYRQAPVKERELVAAINKSGGSTYYADSVKGRFTISRDNAKNTVYLQMNSLKQEDTAVYYCAAVYKRLQPYGYWGQGTQVTVSS	high polyreactivity
QVQLVESGGGLVQAGGSLRLSCAASGIIFYLYAMGWYRQAPGKERELVAAITLSGSTTYYADSVKGRFTISRDNAKNTVYLQMNSLKPEDTAVYYCNADTPVRSDYWGQGTQVTVSS	low polyreactivity
QVQLVESGGGLVQAGGSLRLSCAASGLIFGVNAMGWYRQAPGKEMELVAAITSRGGSTYYADSVKGRFTISRDNAKNTVYLQMNSLKPEDTAVYYCAAKYAYYEPYSWRPQRTYNYWGQGTQVTVSS	high polyreactivity
QVQLVESGGGLVQAGGSLRLSCAASGFTIYAYTMGWYRQAPGKERDLVASITSRGGTTYYADSVKGRFTISRDNEKNTVYLQMNSLKPEDTAVYYCNARGYFGWYAMDYCGQGTQVTVSS	high polyreactivity
